In article PMC6613818 one finds Km, kcat and kcat/Km data, which are given here for one substance.

The subject of this data set is C[C@@H]1O[C@H](OP(=O)(O)OP(=O)(O)OC[C@H]2O[C@@H](n3cnc4c(=O)[nH]c(N)nc43)[C@H](O)[C@@H]2O)[C@@H](O)[C@H](O)[C@@H]1O. Put plainly: purified protein. Particulars: apparent, acceptor LacNAc 3 mM, Tris-HCl pH 7.5, 37 °C.

For Hp3FT (Helicobacter pylori), the Km – broadly, the concentration of substrate that gives half-maximal velocity – is 6.4480 ± 1.1360 mM; the kcat (as a rule, the maximal rate divided by the concentration of active sites) is 0.617 ± 0.0417 s⁻¹; the kcat/Km (usually the turnover number divided by the Michaelis constant) is 96 M⁻¹ s⁻¹.
